{"source": "paper PMC7192595"}
{"substance": "MBP-Leish4E-IP2_(1-134) (domain or fragment)", "values": [{"measurement": "reduction of the binding of SBP-LeishIF4E-3 (cell lysate) to m7GTP-agarose by 0, 5, 10, 20 ug MBP-Leish4E-IP2 (1-134) per 300 ul, densitometry of anti-SBP blots; 60% at 5 ug", "setting": "LeishIF4E-3-SBP", "value": 96, "unit": "%"}, {"measurement": "reduction of the binding of SBP-LeishIF4E-1 (cell lysate) to m7GTP-agarose by 0, 5, 10, 20 ug MBP-Leish4E-IP2 (1-134) per 300 ul, densitometry of anti-SBP blots; 13% at 5 ug; MBP alone had no effect", "setting": "LeishIF4E-1-SBP", "value": 42, "unit": "%"}]}
